According to IntAct's records for PubMed 31515488:

B1: Nuclear pore glycoprotein p62 (Homo sapiens), P37198 (parent)
chain: MSGFNFGGTGAPTGGFTFGTAKTATTTPATGFSFSTSGTGGFNFGAPFQPATSTPSTGLFSLATQTPATQTTGFTFGTATLASGGTGFSLGIGASKLNLSNTAATPAMANPSGFGLGSSNLTNAISSTVTSSQGTAPTGFVFGPSTTSVAPATTSGGFSFTGGSTAQPSGFNIGSAGNSAQPTAPATLPFTPATPAATTAGATQPAAPTPTATITSTGPSLFASIATAPTSSATTGLSLCTPVTTAGAPTAGTQGFSLKAPGAASGTSTTTSTAATATATTTSSSSTTGFALNLKPLAPAGIPSNTAAAVTAPPGPGAAAGAAASSAMTYAQLESLINKWSLELEDQERHFLQQATQVNAWDRTLIENGEKITSLHREVEKVKLDQKRLDQELDFILSQQKELEDLLSPLEELVKEQSGTIYLQHADEEREKTYKLAENIDAQLKRMAQDLKDIIEHLNTSGAPADTSDPLQQICKILNAHMDSLQWIDQNSALLQRKVEEVTKVCEGRRKEQERSFRITFD
partner: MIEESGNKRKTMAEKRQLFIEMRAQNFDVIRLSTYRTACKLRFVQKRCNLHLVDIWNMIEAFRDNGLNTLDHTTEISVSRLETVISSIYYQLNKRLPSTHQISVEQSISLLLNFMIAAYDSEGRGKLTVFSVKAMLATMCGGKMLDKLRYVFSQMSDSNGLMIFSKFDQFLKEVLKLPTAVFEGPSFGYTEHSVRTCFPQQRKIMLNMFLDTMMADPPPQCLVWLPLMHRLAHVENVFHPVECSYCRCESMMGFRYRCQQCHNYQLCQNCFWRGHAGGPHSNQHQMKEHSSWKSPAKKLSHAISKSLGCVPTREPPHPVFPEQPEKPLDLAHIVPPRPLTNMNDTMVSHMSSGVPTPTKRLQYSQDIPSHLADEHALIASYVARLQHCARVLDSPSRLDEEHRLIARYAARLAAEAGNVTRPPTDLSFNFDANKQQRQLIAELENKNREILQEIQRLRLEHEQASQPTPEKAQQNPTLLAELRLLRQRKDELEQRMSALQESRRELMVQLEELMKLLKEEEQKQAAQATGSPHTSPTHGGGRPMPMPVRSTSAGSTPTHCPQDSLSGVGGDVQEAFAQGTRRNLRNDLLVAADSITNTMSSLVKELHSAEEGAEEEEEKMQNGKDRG
B2: Keratin-associated protein 5-9 (Homo sapiens), P26371 (parent)
chain: MGCCGCSGGCGSSCGGCDSSCGSCGSGCRGCGPSCCAPVYCCKPVCCCVPACSCSSCGKRGCGSCGGSKGGCGSCGCSQCSCCKPCCCSSGCGSSCCQCSCCKPYCSQCSCCKPCCSSSGRGSSCCQSSCCKPCCSSSGCGSSCCQSSCCKPCCSQSRCCVPVCYQCKI
partner: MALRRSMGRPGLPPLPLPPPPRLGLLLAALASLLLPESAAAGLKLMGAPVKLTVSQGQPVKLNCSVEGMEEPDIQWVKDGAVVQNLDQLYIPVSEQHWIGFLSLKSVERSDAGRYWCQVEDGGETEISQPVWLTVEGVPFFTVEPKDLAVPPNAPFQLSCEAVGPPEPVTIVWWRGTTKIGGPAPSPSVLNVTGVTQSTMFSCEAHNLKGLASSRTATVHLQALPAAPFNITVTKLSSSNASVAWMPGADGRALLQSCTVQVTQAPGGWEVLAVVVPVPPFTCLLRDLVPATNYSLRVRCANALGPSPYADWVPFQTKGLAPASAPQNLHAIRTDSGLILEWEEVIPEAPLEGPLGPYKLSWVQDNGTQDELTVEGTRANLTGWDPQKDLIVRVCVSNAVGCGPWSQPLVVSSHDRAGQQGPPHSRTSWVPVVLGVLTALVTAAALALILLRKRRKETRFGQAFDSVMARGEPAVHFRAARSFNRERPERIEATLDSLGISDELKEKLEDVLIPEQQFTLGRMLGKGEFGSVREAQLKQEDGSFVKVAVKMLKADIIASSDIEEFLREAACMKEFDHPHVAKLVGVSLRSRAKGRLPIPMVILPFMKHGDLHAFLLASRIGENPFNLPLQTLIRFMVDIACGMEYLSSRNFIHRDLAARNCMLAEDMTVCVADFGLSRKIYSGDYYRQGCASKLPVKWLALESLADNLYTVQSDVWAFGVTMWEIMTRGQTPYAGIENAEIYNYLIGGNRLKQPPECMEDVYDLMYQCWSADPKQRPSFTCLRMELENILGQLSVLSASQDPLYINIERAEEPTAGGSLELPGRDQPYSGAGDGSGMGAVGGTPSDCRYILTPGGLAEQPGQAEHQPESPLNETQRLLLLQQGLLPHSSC
B3: Actin nucleation-promoting factor WAS (Homo sapiens), P42768 (parent)
chain: MSGGPMGGRPGGRGAPAVQQNIPSTLLQDHENQRLFEMLGRKCLTLATAVVQLYLALPPGAEHWTKEHCGAVCFVKDNPQKSYFIRLYGLQAGRLLWEQELYSQLVYSTPTPFFHTFAGDDCQAGLNFADEDEAQAFRALVQEKIQKRNQRQSGDRRQLPPPPTPANEERRGGLPPLPLHPGGDQGGPPVGPLSLGLATVDIQNPDITSSRYRGLPAPGPSPADKKRSGKKKISKADIGAPSGFKHVSHVGWDPQNGFDVNNLDPDLRSLFSRAGISEAQLTDAETSKLIYDFIEDQGGLEAVRQEMRRQEPLPPPPPPSRGGNQLPRPPIVGGNKGRSGPLPPVPLGIAPPPPTPRGPPPPGRGGPPPPPPPATGRSGPLPPPPPGAGGPPMPPPPPPPPPPPSSGNGPAPPPLPPALVPAGGLAPGGGRGALLDQIRQGIQLNKTPGAPESSALQPPPQSSEGLVGALMHVMQKRSRAIHSSDEGEDQAGDEDEDDEWDD

Variants of: B1
Details: with dtnb_human DTNB

Variant | effect of a mutation on the interaction
MSGFNFGGTGAPTGGFTFGTAKTATTTPATGFSFSTSGTGGFNFGAPFQPATSTPSTGLFSLATQTPATQTTGFTFGTATLASGGTGFSLGIGASKLNLSNTAATPAMANPSGFGLGSSNLTNAISSTVTSSQGTAPTGFVFGPSTTSVAPATTSGGFSFTGGSTAQPSGFNIGSAGNSAQPTAPATLPFTPATPAATTAGATQPAAPTPTATITSTGPSLFASIATAPTSSATTGLSLCTPVTTAGAPTAGTQGFSLKAPGAASGTSTTTSTAATATTTTTSSSSTTGFALNLKPLAPAGIPSNTAAAVTAPPGPGAAAGAAASSAMTYAQLESLINKWSLELEDQERHFLQQATQVNAWDRTLIENGEKITSLHREVEKVKLDQKRLDQELDFILSQQKELEDLLSPLEELVKEQSGTIYLQHADEEREKTYKLAENIDAQLKRMAQDLKDIIEHLNTSGAPADTSDPLQQICKILNAHMDSLQWIDQNSALLQRKVEEVTKVCEGRRKEQERSFRITFD [A279T] | with no effect

Variants of: B2
Details: with tyro3_human TYRO3, Q06418

Variant | effect of a mutation on the interaction
MGCCGCSGGCGSSCGGCDSSCGSCGSGCRGCGPSCCAPVCCCKPVCCCVPACSCSSCGKRGCGSCGGSKGGCGSCGCSQCSCCKPCCCSSGCGSSCCQCSCCKPYCSQCSCCKPCCSSSGRGSSCCQSSCCKPCCSSSGCGSSCCQSSCCKPCCSQSRCCVPVCYQCKI [Y40C] | disrupting interaction strength

Variants of: B3
Details: with cdc42_human CDC42, P60953
Chain of cdc42_human CDC42, P60953 (P60953 whole entry, looked up): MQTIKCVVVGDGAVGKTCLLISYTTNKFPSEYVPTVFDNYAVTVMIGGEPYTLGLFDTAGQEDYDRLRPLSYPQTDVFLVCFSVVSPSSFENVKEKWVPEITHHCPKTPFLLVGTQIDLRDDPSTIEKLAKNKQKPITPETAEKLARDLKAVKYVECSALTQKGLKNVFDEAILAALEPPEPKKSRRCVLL

Variant | effect of a mutation on the interaction
MSGGPMGGRPGGRGAPAVQQNIPSTLLQDHENQRLFEMLGRKCLTLATAVVQLYLALPPGAEHWTKEHCGAVCFVKDNPQKSYFIRLYGLQAGRLLWEQELYSQLVYSTPTPFFHTFAGDDCQAGLNFADEDEAQAFRALVQEKIQKRNQRQSGDRRQLPPPPTPANEERRGGLPPLPLHPGGDQGGPPVGPLSLGLATVDIQNPDITSSRYRGLPAPGPSPADKKRSGKKKISKADIGAPSGFKHVSHVGWDPQNGFDVNNLDPDLRSLFSRAGISEAQLTDAETSKLIYDFTEDQGGLEAVRQEMRRQEPLPPPPPPSRGGNQLPRPPIVGGNKGRSGPLPPVPLGIAPPPPTPRGPPPPGRGGPPPPPPPATGRSGPLPPPPPGAGGPPMPPPPPPPPPPPSSGNGPAPPPLPPALVPAGGLAPGGGRGALLDQIRQGIQLNKTPGAPESSALQPPPQSSEGLVGALMHVMQKRSRAIHSSDEGEDQAGDEDEDDEWDD [I294T] | disrupting interaction strength
MSGGPMGGRPGGRGAPAVQQNIPSTLLQDHENQRLFEMLGRKCLTLATAVVQLYLALPPGAEHWTKEHCGAVCFVKDNPQKSYFIRLYGLQAGRLLWEQELYSQLVYSTPTPFFHTFAGDDCQAGLNFADKDEAQAFRALVQEKIQKRNQRQSGDRRQLPPPPTPANEERRGGLPPLPLHPGGDQGGPPVGPLSLGLATVDIQNPDITSSRYRGLPAPGPSPADKKRSGKKKISKADIGAPSGFKHVSHVGWDPQNGFDVNNLDPDLRSLFSRAGISEAQLTDAETSKLIYDFIEDQGGLEAVRQEMRRQEPLPPPPPPSRGGNQLPRPPIVGGNKGRSGPLPPVPLGIAPPPPTPRGPPPPGRGGPPPPPPPATGRSGPLPPPPPGAGGPPMPPPPPPPPPPPSSGNGPAPPPLPPALVPAGGLAPGGGRGALLDQIRQGIQLNKTPGAPESSALQPPPQSSEGLVGALMHVMQKRSRAIHSSDEGEDQAGDEDEDDEWDD [E131K] | with no effect
